Experimental data: FireProtDB (doi:10.1021/bi035651x)
Where “and” joins values, the source holds several entries; their conditions need not be identical. Equal entries are not always repeated.

Conditions: Mus musculus, pH 7.4, 20 °C, Urea, Tris-HCl 20 mM, whole UniProt chain shown

B1: Adenosine deaminase wild type, P03958 (protein)
chain: MAQTPAFNKPKVELHVHLDGAIKPETILYFGKKRGIALPADTVEELRNIIGMDKPLSLPGFLAKFDYYMPVIAGCREAIKRIAYEFVEMKAKEGVVYVEVRYSPHLLANSKVDPMPWNQTEGDVTPDDVVDLVNQGLQEGEQAFGIKVRSILCCMRHQPSWSLEVLELCKKYNQKTVVAMDLAGDETIEGSSLFPGHVEAYEGAVKNGIHRTVHAGEVGSPEVVREAVDILKTERVGHGYHTIEDEALYNRLLKENMHFEVCPWSSYLTGAWDPKTTHAVVRFKNDKANYSLNTDDPLIFKSTLDTDYQMTKKDMGFTEEEFKRLNINAAKSSFLPEEEKKELLERLYREYQ
denaturant m value (CD): 0.89 kcal/mol/M and 0.77 kcal/mol/M
denaturant midpoint (higher = more stable) (CD): 6.15 M and 5.77 M
unfolding free energy (CD): 5.47 kcal/mol and 4.44 kcal/mol
denaturant m value (Fluorescence): 0.85 kcal/mol/M
denaturant midpoint (higher = more stable) (Fluorescence): 6.08 M and 5.73 M
unfolding free energy (Fluorescence): 5.17 kcal/mol and 4.87 kcal/mol
